Legend:
neutrophil elastase (NE) [1] = biological target: T1, neutrophil elastase (NE) (Mus musculus, UniProt Q3UP87); test: Mechanistic study: NE inhibitor given before nanosensor in infected mice, breath signal; type: in vivo; details: 5 mg/kg intratracheal, 15 min before nanosensor, infected mice (FIG. 12)
T1 construct: from tissue; host or cells: lungs of CD-1 mice, healthy or infected with P. aeruginosa PAO1 (homogenates ex vivo, or lung in vivo)
T1 sequence (Q3UP87 27-265): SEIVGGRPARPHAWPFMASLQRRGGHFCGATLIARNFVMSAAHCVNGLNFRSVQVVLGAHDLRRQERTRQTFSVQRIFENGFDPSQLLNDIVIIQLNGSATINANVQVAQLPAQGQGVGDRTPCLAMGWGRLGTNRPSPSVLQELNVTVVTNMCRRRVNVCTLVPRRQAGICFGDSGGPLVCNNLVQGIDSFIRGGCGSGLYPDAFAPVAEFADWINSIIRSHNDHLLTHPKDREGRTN

[2] = biological target: T2, lung homogenates (neutrophil elastase) (Mus musculus, UniProt Q3UP87); test: Ex vivo reporter release from nanosensors mixed with infected and healthy lung homogenates; parameters: species or system CD-1 mice; details: 24 h post-inoculation with P. aeruginosa PAO1 (FIG. 3C)
T2 construct: from tissue; host or cells: lungs of CD-1 mice, healthy or infected with P. aeruginosa PAO1 (homogenates ex vivo, or lung in vivo)
T2 sequence (Q3UP87 27-265): T1 sequence (Q3UP87 27-265)
Experimental: Ultimately, the goal was to administer nanosensors into the lungs of mouse models of bacterial pneumonia to test for measurable reporter levels in the breath. Prior to direct administration into animal infection models, nanosensors were mixed ex vivo with infected and healthy lung homogenates. Bacterial pneumonia was established in CD-1 mice by intratracheal injection of 1.5×10^6 cfu Pseudomonas aeruginosa strain PAO1 (FIG. 3A). At 24 h post-inoculation, the time at which mice were euthanized and lung homogenates were prepared, infected lung homogenates had ˜22-fold greater neutrophil elastase concentration than healthy lung homogenates (FIG. 3B and FIG. 7). […] When mixed with nanosensors, infected lung homogenates triggered 5-fold faster reporter release compared to healthy lung homogenates (FIG. 3C).

neutrophil elastase (NE) [3] = biological target: T1, neutrophil elastase (NE); type: in vivo, mice
Experimental: With confirmation that infected lungs trigger greater reporter release and at detectable levels, nanosensors were then tested in acute pneumonia mouse models. […] Infected-7 and Infected-12, which have high initial reporter levels, have nanosensors predominantly in the airway. […] Reporters released from the sensor in the airways are expected to be expired in the breath more rapidly than free reporters deeper in the lung as the tidal volume is only a fraction of the total volume of the lung. […] In fact, infected breath samples at 16 min (18 min post-injection) have 3-fold higher mean reporter levels than breath samples from healthy controls (p=0.0035) (FIG. 4E and FIG. 6, right).
Therefore, subsequent studies focused on nanosensors with pentafluoropropylamine or heptafluoropropylamine reporters. […] Breath signal was reduced by ˜70% due to inhibitor administration, confirming the role of NE in releasing reporters in vivo to generate breath signal (FIG. 12).

Molecule	reduction of breath signal (neutrophil elastase (NE) [1])	reporter release rate, infected vs healthy lung homogenates [2]	breath signal, infected vs healthy mice (neutrophil elastase (NE) [3]; 10, 20 and 30 min after administration, low and high doses (FIGS. 10A-10B))	dose dependence of breath signal (neutrophil elastase (NE) [3]; 10 vs 100 μM doses)	AUROC for identifying infected mice by breath signal (neutrophil elastase (NE) [3]; 10 min, low dose (10 μM), p=0.0062)	mean reporter levels in breath, infected vs healthy controls (neutrophil elastase (NE) [3]; 16 min timepoint (18 min post-injection), p=0.0035)	reporter levels in breath, infected vs healthy (2-way ANOVA) (neutrophil elastase (NE) [3]; 20 min breath collection, p<0.05)	duration of SNR >1.0 relative to unattached peptide substrate (neutrophil elastase (NE) [3]; FIG. 11B)	reporter levels in breath, infected mice vs healthy controls after convergence (neutrophil elastase (NE) [3]; after first 14 min of breath collection (FIG. 4B))	time to disease-distinguishing reporter signal in the breath (neutrophil elastase (NE) [3]; after inhalation)	earliest time of perfect distinction between mice with and without bacterial pneumonia (neutrophil elastase (NE) [3]; after nanosensor inhalation)	breath signal vs peptide substrate unattached to scaffold (neutrophil elastase (NE) [3]; infected mice (FIG. 11A))	timepoint of maximum effect size of reporter levels (neutrophil elastase (NE) [3]; infected vs healthy (FIG. 4D))	detectability of reporter levels in breath (neutrophil elastase (NE) [3]; intratracheal instillation, 10 μM equivalent peptide dose)
CC(C)(C)C(=O)Oc1ccc(S(=O)(=O)Nc2ccccc2C(=O)NCC(=O)O)cc1 [sivelestat]	~70%	–	–	–	–	–	–	–	–	–	–	–	–	–
nanosensor: NE peptide substrate Nle(O-Bzl)-Met(O)2-Oic-Abu with C-terminal PFC reporter, conjugated via CKKK-PEG4 linker to 40 kDa 8-arm PEG; pentafluoropropylamine reporter in vivo (CKKKXXXX; not fully specified; non-natural residues)	–	5 fold	significantly higher	dose-dependent	1.0	3 fold	significantly greater	~3 ×	~3 fold	≤ 20 min	≥ 12 min	higher breath signal than peptide substrates	16 min	detectable
